Data published in patent publication US20190144566A1 (ORUM THERAPEUTICS, published 2019).

Target: T1, mCherry (red fluorescence) H-RAS G12V (UniProt P01112 1-186)
T1 construct: Expressed inside NIH3T3 cells, located at the inner cell membrane; also called intracellular H-RAS G12V mutants; not shown: mCherry red fluorescent protein
Assay: confocal co-localisation in NIH3T3 cells expressing mCherry H-RAS G12V

B1: cytosol-penetrating antibody (cytotransmab) TMab4 (antibody, V domains shown)
VH: EVQLVESGGGLVQPGGSLRLSCAASGYTFTSYVMHWVRQAPGKGLEWVSAINPYNDGNYYADSVKGRFTISRDNSRKTLYLQMNSLRAEDTAVYYCARGAYKRGYAMDYWGQGTTVTVSS
VL: DLVMTQSPSSLSASVGDRVTITCKSSQSLFNSRTRKNYLAWYQQKPGKAPKLLIYWASTRESGVPSRFSGSGSGTDFTLTISSLQPEDFATYYCQQYYYHMYTFGQGTKVEIKR
notes: Intact IgG-format monoclonal antibody with CH1-hinge-CH2-CH3 and CL; Used as negative control in the RAS assays; also called CT
binding result: no binding (tested: 2 µM)
